Measured values: patent EP2272524A2

How the values were obtained:
[1] = target: human Y1 receptor (human) (UniProt P25929); test: cell-based or functional assay
[2] = target: human Y2 receptor (human) (UniProt P49146); test: cell-based or functional assay
[3] = target: human Y4 receptor (human) (UniProt P50391); test: cell-based or functional assay
[4] = target: human Y5 receptor (human) (UniProt Q15761); test: cell-based or functional assay
[5] = target: human Y4 receptor (human) (UniProt P50391); test: competition binding, displacement of 125I-PP, COS-7 cells with human Y4
[6] = target: human Y5 receptor (human) (UniProt Q15761); test: competition binding, displacement of 125I-NPY, COS-7 cells with human Y5
[7] = target: human Y2 receptor (human) (UniProt P49146); test: competition binding, displacement of 125I-PYY, COS-7 cells with human Y2

Sequence of UniProt P25929 (P25929 whole entry): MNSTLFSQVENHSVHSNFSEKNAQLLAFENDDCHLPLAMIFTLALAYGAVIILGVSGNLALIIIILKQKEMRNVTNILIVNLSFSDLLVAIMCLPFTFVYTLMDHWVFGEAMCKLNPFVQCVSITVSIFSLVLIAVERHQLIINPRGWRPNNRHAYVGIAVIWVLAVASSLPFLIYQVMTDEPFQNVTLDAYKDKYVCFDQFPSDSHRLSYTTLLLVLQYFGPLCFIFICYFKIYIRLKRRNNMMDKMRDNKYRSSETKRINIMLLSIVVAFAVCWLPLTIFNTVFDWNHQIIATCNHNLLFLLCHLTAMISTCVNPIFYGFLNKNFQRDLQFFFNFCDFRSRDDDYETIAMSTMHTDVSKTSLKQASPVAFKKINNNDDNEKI
Sequence of UniProt P50391 (P50391 whole entry): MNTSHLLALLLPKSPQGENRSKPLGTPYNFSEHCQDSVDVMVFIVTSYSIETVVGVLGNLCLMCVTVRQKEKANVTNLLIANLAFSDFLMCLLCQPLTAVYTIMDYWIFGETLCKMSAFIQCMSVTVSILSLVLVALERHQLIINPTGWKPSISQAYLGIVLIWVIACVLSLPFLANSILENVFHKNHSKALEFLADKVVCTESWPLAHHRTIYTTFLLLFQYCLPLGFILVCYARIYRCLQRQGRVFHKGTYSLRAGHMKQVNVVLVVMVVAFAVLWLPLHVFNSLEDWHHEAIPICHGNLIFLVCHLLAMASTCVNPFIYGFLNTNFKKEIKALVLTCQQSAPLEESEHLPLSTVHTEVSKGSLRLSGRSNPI
Sequence of UniProt P49146 (P49146 whole entry): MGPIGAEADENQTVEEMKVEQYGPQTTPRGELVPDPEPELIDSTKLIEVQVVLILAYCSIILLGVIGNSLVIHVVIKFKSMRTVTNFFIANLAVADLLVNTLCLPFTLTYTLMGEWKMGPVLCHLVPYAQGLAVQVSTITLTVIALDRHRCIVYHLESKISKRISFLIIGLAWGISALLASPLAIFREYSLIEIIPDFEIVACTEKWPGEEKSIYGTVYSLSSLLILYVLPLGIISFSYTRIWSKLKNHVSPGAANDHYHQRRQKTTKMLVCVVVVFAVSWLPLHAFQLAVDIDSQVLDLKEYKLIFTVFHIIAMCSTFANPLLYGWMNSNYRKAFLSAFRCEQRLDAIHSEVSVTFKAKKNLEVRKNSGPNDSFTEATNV
Sequence of UniProt Q15761 (Q15761 whole entry): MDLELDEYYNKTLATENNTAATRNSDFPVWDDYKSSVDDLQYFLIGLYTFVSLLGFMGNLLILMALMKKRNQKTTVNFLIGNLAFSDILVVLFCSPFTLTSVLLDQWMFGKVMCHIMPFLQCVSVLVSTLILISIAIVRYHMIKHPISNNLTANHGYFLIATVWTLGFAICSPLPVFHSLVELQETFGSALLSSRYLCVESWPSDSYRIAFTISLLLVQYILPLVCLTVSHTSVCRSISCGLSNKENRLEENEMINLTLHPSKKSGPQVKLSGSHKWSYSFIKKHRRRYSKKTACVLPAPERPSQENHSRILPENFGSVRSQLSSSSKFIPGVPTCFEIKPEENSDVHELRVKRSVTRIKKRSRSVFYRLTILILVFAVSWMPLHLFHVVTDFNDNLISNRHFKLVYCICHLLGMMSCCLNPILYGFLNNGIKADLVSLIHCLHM

| EC50, inositol phosphate turnover (potency assay) [1] [nM] | EC50, inositol phosphate turnover (potency assay) [2] [nM] | EC50, inositol phosphate turnover (potency assay) [3] [nM] | EC50, inositol phosphate turnover (potency assay) [4] [nM] | IC50 [5] [nM] | IC50 [6] [nM] | IC50 [7] [nM] | Substance |
| --- | --- | --- | --- | --- | --- | --- | --- |
| 38 | 0.17 | 64 | 3.8 | 6 | 0.87 | 0.21 | [Lys4,Gln34]PP (peptide) |
| > 1000 | 1.9 | > 1000 |  | 300 | 36 | 0.6 | [Cys2,D-Cys27]PYY2-36 (peptide) |
| > 1000 |  | > 1000 |  |  |  |  | [Cys2,D-Cys27]PYY (peptide) |
